US20170306037A1 (Novartis, published 2017)
Changes are numbered by the printed parent chain.

What was measured:
[1] = biological target: T1, mouse GITR extracellular domain (mouse, UniProt O35714 20-153); assay: ELISA on coated GITR ECD
T1 construct: extracellular domain; also called murine GITR; rodent GITR
T1 sequence (looked up): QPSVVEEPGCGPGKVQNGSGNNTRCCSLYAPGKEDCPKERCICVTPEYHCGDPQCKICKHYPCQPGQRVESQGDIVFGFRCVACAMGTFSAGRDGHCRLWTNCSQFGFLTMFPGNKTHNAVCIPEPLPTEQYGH
Description: (§1) The plate was blocked with a solution of 1% BSA in PBS for one hour at room temperature and then rinsed three times with PBST. The MAB was then diluted to 0.5 μg/mL or 1 μg/mL in PBS and 20 μL was added to each well. The plate was incubated for 1 hour at room temperature and then washed three times with PBST. […] The plate was incubated for 1 hour at room temperature, and then washed six times with PBST. 25 μL of SureBlue TMB (KPL 52-00-02) substrate was added to each well and the plate was incubated for about 10 min at room temperature.

[2] = biological target: T2, rat GITR extracellular domain (rat, UniProt F7FFS7 65-198); assay: ELISA on coated GITR ECD
T2 construct: also called rodent GITR
T2 sequence: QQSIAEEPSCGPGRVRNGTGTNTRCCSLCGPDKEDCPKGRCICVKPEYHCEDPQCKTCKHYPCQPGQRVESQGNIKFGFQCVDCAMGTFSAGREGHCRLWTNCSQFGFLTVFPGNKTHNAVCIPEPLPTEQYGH
Description: as §1

B1: MAB4 (IgG1 kappa) (antibody, V domains shown)
VH: EVQLVESGGGLVQSGGSLRLSCAASGFSLSSYGVDWVRQAPGKGLEWVGVIWGGGGTYYASSLMGRFTISRDNSKNTLYLQMNSLRAEDTAVYYCAKHAYGHDGGFAMDYWGQGTLVTVSS
VL: EIVMTQSPATLSVSPGERATLSCRASESVSSNVAWYQQRPGQAPRLLIYGASNRATGIPARFSGSGSGTDFTLTISRLEPEDFAVYYCGQSYSYPFTFGQGTKLEIKR
B1: no binding (tested: not on the sheet; paragraph 336: 0.5 or 1 µg/mL) [1]; no binding (tested: not on the sheet; paragraph 336: 0.5 or 1 µg/mL) [2].

B2: MAB5 (IgG1 kappa) (antibody, V domains shown)
VH: B1 VH with V48L, A60T
VL: B1 VL
notes: also called MABS (misprint of MAB5)
B2: no binding (tested: not on the sheet; paragraph 336: 0.5 or 1 µg/mL) [1]; no binding (tested: not on the sheet; paragraph 336: 0.5 or 1 µg/mL) [2].
